Experimental data reported in publication PMC8322138, “BRCA2 binding through a cryptic repeated motif to HSF2BP oligomers does not impact meiotic recombination” (Nature Communications, 2021).
Numbering of substitutions follows the chain as printed. Numbers in names are those of the source. Blank lines part the entries; values can stand above or below the molecule they belong to.

Tested on: BRCA2 (Flag-F9)
Assay: Co-immunoprecipitation of GFP-HSF2BP variants with Flag-BRCA2 F9
Assay type: cell-based, human
Settings: transient HEK293T / stable HeLa, anti-GFP beads, immunoblot
Text: Expression constructs for producing point mutation and truncation variants of HS2BP and BRCA2 in human cells were engineered as described before[16] in the PiggyBac vectors by Gibson assembly. For transient expression into HEK293T cells plasmid DNA was transfected using calcium precipitation method or PEI transfection. For stable integration into HeLa cells, PiggyBac expression vectors were co-lipofected together with PiggyBac transposase plasmid (hyPBase[45]) with Lipofectamine 3000 (Thermo Fisher).
Cells were washed twice in ice-cold PBS and lysed in situ in NETT buffer (100 mM NaCl, 50 mM Tris pH 7.5, 5 mM EDTA pH 8.0, 0.5% Triton-X100) supplemented immediately before use with protease inhibitor cocktail (Roche) and 0.4 mg/ml Pefabloc (Roche) (NETT++); 450 µl NETT++ buffer was used per 145 mm dish ES cells, 1 ml for HeLa and HEK293T. After 5–10 min, cells were scraped off and collected in 1.5 ml microcentrifuge tubes; lysis was continued for additional 20–30 min on ice, then mixtures were centrifuged (15 min, 4 °C, 14,000 × g) and the supernatant (input) was added to washed anti-GFP beads (Chromotek). Beads and lysates were incubated 2–4 h at 4 °C while rotating, washed three times in NETT++ buffer and bound proteins were eluted by boiling in 2x Sample buffer. Immunoblotting was performed following standard procedures with the following antibodies: anti-GFP mAb (Roche, #11814460001), anti-GFP pAb (Abcam #ab290 and Invitrogen #A11122), anti-RAD51[46], anti-BRCA2 mAb Ab1 OP-95 (Millipore #OP95), anti-BRCA2 (Abcam #27976), anti-Flag (M2 antibody, Sigma, F3165 and F1804). For quantitative immunoblotting fluorescently labeled secondary antibodies were used: anti-mouse CF680 (Sigma #SAB460199), anti-rabbit CF770 (Sigma #SAB460215); membranes were scanned using Odyssey CLx imaging system (LI-COR).

binding to BRCA2 (co-precipitation): totally abolished binding
binding to BRCA2 (co-precipitation) (listed as N243): failed to co-precipitate
B1: N243H: GFP-HSF2BP point mutant (protein)
chain: MGEAGAAEEACRHMGTKEEFVKVRKKDLERLTTEVMQIRDFLPRILNGEVLESFQKLKIVEKNLERKEQELEQLKMDCEHFKARLETVQADNIREKKEKLALRQQLNEAKQQLLQQAEYCTEMGAAACTLLWGVSSSEEVVKAILGGDKALKFFSITGQTMESFVKSLDGDVQELDSDESQFVFALAGIVTNVAAIACGREFLVNSSRVLLDTILQLLGDLKPGQCTKLKVLMLMSLYNVSIHLKGLKYISESPGFIPLLWWLLSDPDAEVCLHVLRLVQSVVLEPEVFSKSASEFRSSLPLQRILAMSKSRNPRLQTAAQELLEDLRTLEHNV
modifications: left off: GFP, end not stated, kept
notes: GFP-HSF2BP point mutant

binding to BRCA2 (co-precipitation): abolished binding
binding to BRCA2 (co-precipitation) (listed as G199): failed to co-precipitate
B2: G199D: GFP-HSF2BP point mutant (protein)
chain: B1 chain with G199D, H243N
modifications: left off: GFP, end not stated, kept
notes: GFP-HSF2BP point mutant

binding to BRCA2 (co-precipitation): totally abolished binding
binding to BRCA2 (co-precipitation) (listed as N192): failed to co-precipitate
B3: N192R: GFP-HSF2BP point mutant (protein)
chain: B1 chain with N192R, H243N
modifications: left off: GFP, end not stated, kept
notes: GFP-HSF2BP point mutant

binding to BRCA2 (co-precipitation): totally abolished binding
B4: R200H: GFP-HSF2BP point mutant (protein)
chain: B1 chain with R200H, H243N
modifications: left off: GFP, end not stated, kept
notes: GFP-HSF2BP point mutant

binding to BRCA2 (co-precipitation): totally abolished binding
binding to BRCA2 (co-precipitation) (listed as N239): failed to co-precipitate
B5: N239K: GFP-HSF2BP point mutant (protein)
chain: B1 chain with N239K, H243N
modifications: left off: GFP, end not stated, kept
notes: GFP-HSF2BP point mutant

binding to BRCA2 (co-precipitation): did not impact BRCA2 binding
binding to BRCA2 (co-precipitation) (listed as K245): do not decrease binding
B6: K245T: GFP-HSF2BP point mutant (protein)
chain: B1 chain with H243N, K245T
modifications: left off: GFP, end not stated, kept
notes: GFP-HSF2BP point mutant

binding to BRCA2 (co-precipitation): totally abolished binding
B7: R200E: GFP-HSF2BP point mutant (protein)
chain: B1 chain with R200E, H243N
modifications: left off: GFP, end not stated, kept
notes: GFP-HSF2BP point mutant

binding to BRCA2 (co-precipitation): totally abolished binding
binding to BRCA2 (co-precipitation) (listed as Y238): failed to co-precipitate
B8: Y238A: GFP-HSF2BP point mutant (protein)
chain: B1 chain with Y238A, H243N
modifications: left off: GFP, end not stated, kept
notes: GFP-HSF2BP point mutant

binding to BRCA2 (co-precipitation): still weakly bound to BRCA2
B9: M235T: GFP-HSF2BP point mutant (protein)
chain: B1 chain with M235T, H243N
modifications: left off: GFP, end not stated, kept
notes: GFP-HSF2BP point mutant

binding to BRCA2 (co-precipitation): totally abolished binding
B10: R200C: GFP-HSF2BP point mutant (protein)
chain: B1 chain with R200C, H243N
modifications: left off: GFP, end not stated, kept
notes: GFP-HSF2BP point mutant

binding to BRCA2 (co-precipitation): did not impact BRCA2 binding
binding to BRCA2 (co-precipitation) (listed as E201): do not decrease binding
B11: E201A: GFP-HSF2BP point mutant (protein)
chain: B1 chain with E201A, H243N
modifications: left off: GFP, end not stated, kept
notes: GFP-HSF2BP point mutant
